From the DeepSol protein solubility set come the findings set out here.

The nature of the data set: soluble on expression in E. coli; label from the status in PepcDB or PDB records.
On to “MGSDKIHHHHHHMFHREDFSKALLKKALQPGMRVMDIGCGSGELTRLAADIVGKEGDVVGIDINEQLLWQARHDNGYANVSYQNADLAALSSFETKSFDAIIGRRVLMYQKDPKKVIESLTPLLKPNGFYVFQESDAMCLELAKPSFVNMNKIQSLIWQTVEKEGGHIHIGSQLEQLMLEAGLIVDHFVSENVIQTSQTGTDLSWLLNIMKERIQKYSDLQGLEDVNLQKELEENNDHFIRDCQFGIISHRVDE”, for which the “soluble on expression in E. coli” value is listed as “not soluble”.
As to “MGSDKIHHHHHHMEMFAQFSVEGQRMYGMLHTPDGSATGQQAPPQGWPSVVIVHGFTGDKVSSHRLLVLLARRLTAAGIAALRFDCRGSGESQGDFSEMTVGREVQDVEAAFDYVRHQPGLDPERVMLLGYSMGGLVSALAAEKVRPHRFALWSPALPELWLRHLRGGLLPPVISDYGGWPLGRAFLQEVVQTRPLEAAARWGGVAHVFHGDRDQTCPVEWGVRTPKPCAATPPRFPARGTRMTRSNR”, the “soluble on expression in E. coli” value is “not soluble”.
Then “MPASEQGFWRGMETCGWGGGSYILYAWARNAPNLVLPKDVAFSVGHEQDGIKYFVLQVHYAQPFAGEVHDFSGVTMHISQKKPMNLAAVMLFVSGTPIPPQLPAFQNNITCMFESSTPIHPFAFRTHTHAMGRLVSAFFKHDGHWTKIGKRNPQWPQLFEGIPSKLMIGSGDQMSASCRFDSMDKNRTVNMGAMGVDEMCNFYMMFHYDAKLDNPYPQGAICAKDYPSKMIDYPKDGFELLPSRPELEHHAHQSKVPFGIVQEAIHENLGGVKLGQVAGLAFNNEQQLLVFQRAGRVWDASTFDNYNILLDKKPIADPVILVISYSGNQTKLERKLGGGQFYLPHGIYVDKDGFVYTTDVGSHTVAKWKIEGNELKNIWTSGELLMPGSDQHHYCKPTGITRVEDQLYVTDGYCNSRVVVLDLNGKRIRQFGLPGEDAGQFNLPHDIVSDSAGRLLVTDRENGRVQHMTTQGHVIEEFKSTMFTNIYSAASHEDYVFMVPGRPIMGHETEGIAVFVGRSGTGLIEYAFGPTTKGKREQMGPQFGQPHCLRVCPDGGHIFVGDIAEGKARLWQFKVNLLEMCGSKYDMIKIKLMILP”, with “not soluble”; and “MSLVNMEFLKRSFAPLTEKQWQEIDNRAREIFKTQLYGRKFVDVEGPYGWEYAAHPLGEVEVLSDENEVVKWGLRKSLPLIELRATFTLDLWELDNLERGKPNVDLSSLEETVRKVAEFEDEVIFRGCEKSGVKGLLSFEERKIECGSTPKDLLEAIVRALSIFSKDGIEGPYTLVINTDRWINFLKEEAGHYPLEKRVEECLRGGKIITTPRIEDALVVSERGGDFKLILGQDLSIGYEDREKDAVRLFITETFTSRLSTRRPEGHHHHHH”, with “soluble”.
On to “SATKELDLLADTAIAETEKPLDLGLDDSKTHAFLFTATWCDWYFKDSRPTASQQCISAQNSVNNLTKKFDKFAWQGIISRLWTGPSELANYTKKYQVKHPIAIDVSNSMFHQYGIKEFPSLVVVKNGEVILKTSDFSKPESLAKQLSKL”, for which the “soluble on expression in E. coli” value is given as “not soluble”.
Consider “GSMAGWQSYVDNLMCDGCCQEAAIVGYCDAKYVWAATAGGVFQSITPAEIDVIIGKDREGFFTNGLTLGGKKCSVIRDSLYVDSDCTMDIRTKSQGGEPTYNVAVGRAGRVLVFVMGKEGVHGGGLNKKAYSMAKYLRDSGF”, for which the “soluble on expression in E. coli” value is listed as “soluble”.
On to “MRQIFPGLDPNTYVQHPLHSSERMWPETNCYIDLWIEVLASKGLSPEAMFGFTLTQDFEGDQFTFFKVPLEDLEALYGVRATELAIFDKVEDHIATQLERGRICLIEMDSFYMPDTHGVGYQKEHGKTTVAINRLDLEKRELDYFHNAGFFHLSGEDFDGLFQHHLAETDPPFLPYTEFAKFADSNPSPAHIRKTAERLLKFHFSRRPSANPVRAFAKVFPAQVEKVADRPFGFFHKYAFNTLRQLGANFELAASHLEWLDKQGFSDARDHALKISEVAKTVQFQLARAVTRRKFDALATVLDPAADAWDGLMESLGEKLSDASEAA”, for which the “soluble on expression in E. coli” value is given as “soluble”.
As for “MKLINTTNSHSQLVKSQLESTDATLVEVYSAGNTDVIFTQAPLHYEILISNKHRAIREPEIETIQEFFLKRKIDKASVDEANIKTLYSEKLIGISIPIK”, the “soluble on expression in E. coli” value is on record as “not soluble”.
For the sequence “MTATAQQLEYLKNSIKSIQDYPKPGILFRDVTSLLEDPKAYALSIDLLVERYKNAGITKVVGTEARGFLFGAPVALGLGVGFVPVRKPGKLPRETISETYDLEYGTDQLEIHVDAIKPGDKVLVVDDLLATGGTIEATVKLIRRLGGEVADAAFIINLFDLGGEQRLEKQGITSYSLVPFPGH”, the “soluble on expression in E. coli” value is listed as “soluble”.
As for “MLANQIKYVILHLTQSIIEYSMANLNCIKAVLAEKGIMSKWLAKTLKKDPATVSKWCNNHSQPDLYTLARIAEVLDVDIHKLICHTKEE”, the entry is “not soluble”; as for “MGHHHHHHSHMALVTVQRSPTPSTTSSPCASEADSGEEECRSQPRSISESFLTVKGAALFLPRGNGSSTPRISHRRNKHAGDLQQHLQAMFILLRPEDNIRLAVRLESTYQNRTRYMVVVSTNGRQDTEESIVLGMDFSSNDSSTCTMGLVLPLWSDTLIHLDGDGGFSVSTDNRVHIFKPVSVQAMWVDRDSRNKHCDVLLVEE”, “not soluble”; as for “MGSDKIHHHHHHMKDTNRTHSADAATVEEALAADNHQGIVDSEGATALAMQNTLLTPRFYTTDFDEMDSLDVSSVREDWDTLIAQMKSDPNKGHFKKNEDWDSVDWDGMEPALKREFIDFLVSSCTAEFSGCVLYKEMKRRGNNEDIVTLFQLMARDEARHAGFINDALREAGIAVNLGFLTQKKKYTYFRPKFIYYATYLSEKIGYARYITIFRHLEANPEHRFHPIFKWFREWCNDEFSHGEAFALIMKSDPKFTQKWQNKLWIKFFLTAVYSTMYVRDHQRPVFHAALGVDPDWYAHEVFTKTSEITKQIFPITLDIENPRWQRGLEAMQRANVDLADAKANGKLFKRIGASIRAGAAFVNLFTIPANKHDAPASVRLEPAY”, “not soluble”.
For “MYNDVLFPGEDINKPISIAAANRFVNRIRGGMDLGYWRTHDFRRTLVTRLSEMNVEPHVTERMLGHELGGIMSVYNKHDWIEAQRKAYELHADKLFWHIRSISD”, the “soluble on expression in E. coli” value is listed as “not soluble”.
Then “MGSDKIHHHHHHMKCSLGLEKCPDDTLRCFPKIEQPFGIVIFGASGDLTKRKLIPALNRLFEAGILPERFFVLGAARTKMDDKKFRSRFDANPDFLEHCSYISVDYQDPESFKQLKNTIETLIKRIDSSNLVFYLAVPPDLYIPILENLSKTGLNEKPARVVIEKPFGKDLESARRLEDTLQKYFQEDQIFRIDHYLGKETVQNILVFRFANFIFEEIWNNKFVDHVQITMAEDIGVEHRAGYFENVGLLRDIFQNHMLQILALIAMEPPSSFNGENFRNERVKLLRSIRPFPVEELESWIVRGQYGRGVVNGKEVPAYREEPGVAKDSNVETFVAMKLFIDNWRWSGVPFYLRSGKRLPKKITEVAVVFKKIPHSIFAGVPSDELEPNTIVFTLQPNEGISLEFQVKRPCPGMFPQLLSMDFRYEDYFGVKLPDAYERLLLDVILGDPTLFMRRDDLEVSWELLDPVLKAWENDPVRFSPYVYPAGTWGPREADLLIERDGRKWRKL”, with “not soluble”; and “MSEMTPREIVSELDQHIIGQADAKRAVAIALRNRWRRMQLQEPLRHEVTPKNILMIGPTGVGKTEIARRLAKLANAPFIKVEATKFTEVGYVGKEVDSIIRDLTDSAMKLVRQQEIAKNRARAEDVAEERILDALLPPAKNQWGEVENHDSHSSTRQAFRKKLREGQLDDKEIEIDVSAGVSMGVEIMAPPGMEEMTNQLQSLFQNLGSDKTKKRKMKIKDALKALIDDEAAKLINPEELKQKAIDAVEQNGIVFIDEIDKICKKGEYSGADVSREGVQRDLLPLVEGSTVSTKHGMVKTDHILFIASGAFQVARPSDLIPELQGRLPIRVELTALSAADFERILTEPHASLTEQYKALMATEGVNIAFTTDAVKKIAEAAFRVNEKTENIGARRLHTVMERLMDKISFSASDMNGQTVNIDAAYVADALGEVVENEDLSRFIL”, with “soluble”.
Take “MRSQDKYERFIQLLAHEFFHLWNVKRIRPQALEVFNYDQENYTPSLWFCEGTTSYYDLLIPLRAGIYDAKTYLNYWSKEISRLITTPGRKVQPLSESSFDAWIKLYRPDTNTGNSQVSYYLKGELEHHHHHH”: the “soluble on expression in E. coli” value is reported as “not soluble”.
Then “MGSDKIHHHHHHMTQSFIVDEAFWQLFPEVEIAFLTAQDIDNHAKEQVPTDLLTTANHVAATKWVPNDPISQNTVVQDWRQAFQQFKTKKGARCAVENLLKRAKNGKGVGTINPVVDVYNSVSLEWAFPVAAEDMDQIKGDIHLTVAQGGERFRPIGEDDVETALPGEVIYRDAYDVISRCWAWRDSARVEATEATQNLLFYMENVNPQRHADHVAATAALRTRLHDYLGISTTLHVVTHDQPSVAFKD”, with “not soluble”; and “MAHHHHHHMLQWVVKEVEGPFGNIATIHWAVPEGQDDGESSDNTAESQKLHHKVGQGGKVQPELQHLLEDAEDQLGAVLWNSNSVAMGHLQKHVLQNHDKACHVVELGAGVGCLGIGLAMAGARVVITDMKELVPLMEKNIELNKERILSRSNGKGSCVAMTWRWGPPPLVKQKHNAKRVKINNARQHSSNADVPSAQNERGRSPYLLPSPAFVEMQRLLDHVDLVVLCDALYGNPKSWPQLLYTLSEILAANPRCEVINFCEQRVDDVEGDFLNLLQQENAKLPPPANSAVGPEGNETMEEALLRMRGSYKWSTSTEVVGEGPSDLGMPVRVTRISWVHRSGKWGTGASTASRDVVVDGADLGR”, with “not soluble”; and “MGSDKIHHHHHHMKYPNETSGTADYTVIKGLVTSNGDTGHDSIALDTATQLTAEDVKHFRDYGFSIVGRYLTGTVGTDYKPKNLTSTEIKTILDGGMKFFPIYEDGGYVESYFTASQGQKDAQTAIKTALDLELPAGTVIYFAVDVDFQDGDIDGTVIPYIKAIQNILSQSIYKTGIYGTRNVCLHAERVGIGFSFVANMSYGWSGNLGFKMPDNWAFDQFVEYPIYGIDIDQTASSGLDKGISGVAQTTPEVQTGYLANQLLSVFPDYHNLFGTINWTVSAPEQHLSTPIADYYITLEDKWIATVVDDKTGTLTIQDAKMLNQTADVMKQFESAMSSYDIGDLSGAFNKLAPMIGNGAIKAGLAIRDGMVGFKIAIEGSFESSTSSSSVEGKYTLTLETYIHRDQVPKNAYDPVYQPVTEPNPVFAVDLGKVATTVVIGLLVSSMLPEVGGGAALVELFNVVKTIFAVA”, with “not soluble”.
Regarding “MGSDKIHHHHHHMTEPTRHQEHETETQEADLPNVCVVTHPLAAAGENATRSLLDILSAITSVALVTADLPADSEIRDRHELVELTQKGAGDSVVIAAFRFLLNQLRMCRVIAGRDEDVVLFFGATSYLLPIVVTRLLGKTVLVEPRGDVPLTLRLNWEQQLPDQVAAVLAGAVRALERAGFAVAHGVITYTPEMARQLDLHPESPSVYPTGARYVRTNEFCVQRPYADRDRVVGFLGRLDEEKGVRELAAVATQLPDDITFRFVGDGDLREWLEEDLAADIEAGHVELTGWVDHDKVPHALNDLELLILPSQPTEGLPTTILEALACGTPVYASPVSGVPDVVRDEETGFTIDSRESTALAAGIERILDRNDLAAISENGRTLIEREYSFDAACERYRGILRSVAGYSS”, the “soluble on expression in E. coli” value is “not soluble”.
As for “MHLTCKNGEIKTIMWSNISEQFPVTGYSYWAVGVDITHLKAIEEQLKQQTSELELIFKALPDLCFLTEDDGTIIDYKAGSPTKFYVPAEAFMGKKFYEVLPTSVAQQFQEAINQVKEKGTNVIVEYPLTLNGSIDFFEARCLPLLHDKIMIIVRDITERKKTEELLNKSDTLAAIGQLAAGVAHEVRNPLTVIKGFIQLFQINKEDQERYFDLMLSEIERIEAILQEFLSIAKTDEINTEKKNIYQIFKNVVSLMNTKAIMTNIQVELFTGDKDIIIECSENQLKQVFINILQNSIEAMPNGGGISIHIKEINDDGVIIHVIDEGIGIPEERIKRLGEPFYSTKEKGTGIGLMLSYKIIESHQGTISIRSEVGVGTTVTIYLPKVLNKQSLSNCDDKCIAIRTSSNS”, the “soluble on expression in E. coli” value is on record as “not soluble”.
